Data on four molecules can be found in patent US20200040048A1 (published 2020).

The IC50 is the midpoint of a concentration-inhibition curve. A high value points to a need for much substance. The Ki is the dissociation constant of the complex between target and ligand, obtained from inhibition or displacement.

Bridge positions count the residues as written; N and C are the ends. Square brackets hold non-standard residues; d marks the D form. dPhe(4-CF3) = N[C@H](Cc1ccc(C(F)(F)F)cc1)C(=O)O; R8 = C=CCCCCCC[C@@](C)(N)C(=O)O; R5 = C=CCCC[C@@](C)(N)C(=O)O; hLeu = CC(C)CC[C@H](N)C(=O)O; S5 = C=CCCC[C@](C)(N)C(=O)O; Cou6 = not defined here; Cou8 = not defined here; βAla = NCCC(=O)O Bounds are passed on as bounds.

The target of test [1] is T1, zebrafish MDMX protein (residues 15-129, L46V/V95L) (zebrafish, UniProt Q7ZUW7 15-129).
T1 construct: Purified on Ni-NT agarose, so it probably carries a His tag from pET15b
T1 sequence (looked up): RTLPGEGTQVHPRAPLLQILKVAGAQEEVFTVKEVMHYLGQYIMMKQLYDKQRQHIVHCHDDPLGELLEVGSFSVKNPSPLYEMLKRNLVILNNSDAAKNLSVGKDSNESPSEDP
Briefly: X-ray co-crystallography, complex refined to 2.3 Å.

The target of a further test is T2, MDM2 (UniProt Q00987 1-138, limits assumed).
T2 construct: also called MDM2 (41 kD); HDM2
T2 sequence (Q00987 1-138 limits assumed): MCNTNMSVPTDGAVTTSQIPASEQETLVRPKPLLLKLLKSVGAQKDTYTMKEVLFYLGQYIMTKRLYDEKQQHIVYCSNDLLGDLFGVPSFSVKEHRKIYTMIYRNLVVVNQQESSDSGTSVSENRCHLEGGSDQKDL
As to the kind of experiment: competitive FP vs FAM-labeled linear peptide, MDM2 41 kD; grade, scale in paragraph 603.

For another test, the target named is T3, MDMX (40 kD), O15151.
T3 chain: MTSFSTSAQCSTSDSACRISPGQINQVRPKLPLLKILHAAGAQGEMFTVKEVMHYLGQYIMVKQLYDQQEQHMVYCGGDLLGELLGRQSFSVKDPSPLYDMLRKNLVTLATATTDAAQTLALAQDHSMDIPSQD
Briefly: competitive FP on MDMX, FAM-labeled linear peptide displaced; Ki grade, + = >1000 nM. The conditions noted are these: remark: other sources report otherwise.

B1: Ac-QSQQTF%r8NLWRLL%QN-NH2 (peptide)
peptide: QSQQTFANLWRLLAQN
modifications: not fully specified; N-terminal acetyl; C-terminal amide; %r8 at position 7 and % at position 14 are crosslinked alpha-methyl non-natural amino acids forming the i, i+7 aliphatic staple (the token '%' alone is not defined in the filing)
For the molecule B1, the binding result in test [1] is recorded as “binds”.

B2: peptidomimetic macrocycle SP 755 (peptide)
peptide: Ac-[dT][dA][dW][dY][dA][dN][dPhe(4-CF3)][dE][R5][dL][dL][dR][R5][dA]-NH2
modifications: staple 9-13
notes: also called Ac-tawyanf4CF3e$r5llr$r5a-NH2
Take B2: the IC50 with MDM2 is at most 10 nM.

Turning to Cou8-[βAla]LTF[R8]EYWAQ[hLeu][S5]SAA-NH2 (staple 5-12; reading uncertain) [SP447 Cou8BaLTF$r8EYWAQhL$SAA-NH2], the inhibition constant (Ki) with MDMX (40 kD), O15151 is over 1000 nM.

Cou6-[βAla]LTF[R8]EYWAQ[hLeu][S5]SAA-NH2 (staple 5-12; reading uncertain) [SP446 Cou6BaLTF$r8EYWAQhL$SAA-NH2]: in the test with MDMX (40 kD), O15151, the Ki is over 1000 nM.
